Residue numbers refer to the chain shown, from its start.
B1: IgG1-DR4-FERR (antibody, V domains shown)
VH: QVQLQESGPGLVKPSGTLSLTCAVSGGSISSYSWWSWIRQPPGKGLEWIGELYHSGSTNYNPSLKSRVTISVDKSKNQFSLKLRSVTAADTAVYYCVRGVATIDYWGQGTLVTVSS
VL: QSALTQPPSASGSPGQSVTISCTGTSSDVGGYNFVSWYQQDPGKAPKLLIYEVTKRPSGVPDRFSGSKSGNTASLTVSGLQAEDEADYYCSSYAGSNNVMFGGGTKLTVLG
notes: Bivalent monoclonal IgG1 lambda
B2: BisG1-FAPα-FEAL/b12-FEAR (bispecific antibody, human IgG1, kappa)
heavy 1: EVQLLESGGGLVQPGGSPRLSCEASGFTFSSYALSWVRQAPGKGLEWVSAISGSGGGRYYADSVKGRFTISRDNSKNTLFLQMNSLRAEDTAVYYCAKEGYSSSGTYWDHWGQGTLVTVSSASTKGPSVFPLAPSSKSTSGGTAALGCLVKDYFPEPVTVSWNSGALTSGVHTFPAVLQSSGLYSLSSVVTVPSSSLGTQTYICNVNHKPSNTKVDKRVEPKSCDKTHTCPPCPAPEFEGGPSVFLFPPKPKDTLMISRTPEVTCVVVAVSHEDPEVKFNWYVDGVEVHNAKTKPREEQYNSTYRVVSVLTVLHQDWLNGKEYKCKVSNKALPAPIEKTISKAKGQPREPQVYTLPPSREEMTKNQVSLTCLVKGFYPSDIAVEWESNGQPENNYKTTPPVLDSDGSFLLYSKLTVDKSRWQQGNVFSCSVMHEALHNHYTQKSLSLSPG
light 1: AIQMTQSPSSVSASVGDRVTITCRASQGVSSWLAWYQQKPGRAPKLLIYVASTLQSGVPSRFSGSGSGTDFTLTINSLQPEDFATYYCQQANSFPPTFGQGTRLEMKRTVAAPSVFIFPPSDEQLKSGTASVVCLLNNFYPREAKVQWKVDNALQSGNSQESVTEQDSKDSTYSLSSTLTLSKADYEKHKVYACEVTHQGLSSPVTKSFNRGEC
heavy 2: QVQLVQSGAEVKKPGASVKVSCQASGYRFSNFVIHWVRQAPGQRFEWMGWINPYNGNKEFSAKFQDRVTFTADTSANTAYMELRSLRSADTAVYYCARVGPYSWDDSPQDNYYMDVWGKGTTVIVSSASTKGPSVFPLAPSSKSTSGGTAALGCLVKDYFPEPVTVSWNSGALTSGVHTFPAVLQSSGLYSLSSVVTVPSSSLGTQTYICNVNHKPSNTKVDKRVEPKSCDKTHTCPPCPAPEFEGGPSVFLFPPKPKDTLMISRTPEVTCVVVAVSHEDPEVKFNWYVDGVEVHNAKTKPREEQYNSTYRVVSVLTVLHQDWLNGKEYKCKVSNKALPAPIEKTISKAKGQPREPQVYTLPPSREEMTKNQVSLTCLVKGFYPSDIAVEWESNGQPENNYKTTPPVLDSDGSFFLYSRLTVDKSRWQQGNVFSCSVMHEALHNHYTQKSLSLSPG
light 2: EIVLTQSPGTLSLSPGERATFSCRSSHSIRSRRVAWYQHKPGQAPRLVIHGVSNRASGISDRFSGSGSGTDFTLTITRVEPEDFALYYCQVYGASSYTFGQGTKLERKRTVAAPSVFIFPPSDEQLKSGTASVVCLLNNFYPREAKVQWKVDNALQSGNSQESVTEQDSKDSTYSLSSTLTLSKADYEKHKVYACEVTHQGLSSPVTKSFNRGEC
notes: Fab-arm exchange of IgG1-FAPα-FEAL and IgG1-b12-FEAR
B3: IgG1-FAPα-FERL (antibody)
heavy: B2 heavy 1 with G240R, A269D
light: B2 light 1
notes: Bivalent monoclonal IgG1 kappa
B4: BisG1-b12-FERL/DR4-FERR (bispecific antibody, human IgG1, kappa, lambda)
heavy 1: B2 heavy 2 with G246R, A275D, F415L, R419K
light 1: B2 light 2
heavy 2: QVQLQESGPGLVKPSGTLSLTCAVSGGSISSYSWWSWIRQPPGKGLEWIGELYHSGSTNYNPSLKSRVTISVDKSKNQFSLKLRSVTAADTAVYYCVRGVATIDYWGQGTLVTVSSASTKGPSVFPLAPSSKSTSGGTAALGCLVKDYFPEPVTVSWNSGALTSGVHTFPAVLQSSGLYSLSSVVTVPSSSLGTQTYICNVNHKPSNTKVDKRVEPKSCDKTHTCPPCPAPEFERGPSVFLFPPKPKDTLMISRTPEVTCVVVDVSHEDPEVKFNWYVDGVEVHNAKTKPREEQYNSTYRVVSVLTVLHQDWLNGKEYKCKVSNKALPAPIEKTISKAKGQPREPQVYTLPPSREEMTKNQVSLTCLVKGFYPSDIAVEWESNGQPENNYKTTPPVLDSDGSFFLYSRLTVDKSRWQQGNVFSCSVMHEALHNHYTQKSLSLSPG
light 2: QSALTQPPSASGSPGQSVTISCTGTSSDVGGYNFVSWYQQDPGKAPKLLIYEVTKRPSGVPDRFSGSKSGNTASLTVSGLQAEDEADYYCSSYAGSNNVMFGGGTKLTVLGQPKAAPSVTLFPPSSEELQANKATLVCLISDFYPGAVTVAWKADSSPVKAGVETTTPSKQSNNKYAASSYLSLTPEQWKSHRSYSCQVTHEGSTVEKTVAPTECS
notes: Fab-arm exchange of IgG1-b12-FERL and IgG1-DR4-FERR; also called bsIgG1-ctrl-FERLxDR4-FERR

Assays:
[1] = biological target: T1, human DR4 (Death Receptor 4), cell surface expressed on human tumor cell lines (human, UniProt O00220 24-468); assay: flow cytometry, PANC-1 cells, n = 1
T1 construct: also called TNFRSF10A; TRAIL-R1
T1 sequence: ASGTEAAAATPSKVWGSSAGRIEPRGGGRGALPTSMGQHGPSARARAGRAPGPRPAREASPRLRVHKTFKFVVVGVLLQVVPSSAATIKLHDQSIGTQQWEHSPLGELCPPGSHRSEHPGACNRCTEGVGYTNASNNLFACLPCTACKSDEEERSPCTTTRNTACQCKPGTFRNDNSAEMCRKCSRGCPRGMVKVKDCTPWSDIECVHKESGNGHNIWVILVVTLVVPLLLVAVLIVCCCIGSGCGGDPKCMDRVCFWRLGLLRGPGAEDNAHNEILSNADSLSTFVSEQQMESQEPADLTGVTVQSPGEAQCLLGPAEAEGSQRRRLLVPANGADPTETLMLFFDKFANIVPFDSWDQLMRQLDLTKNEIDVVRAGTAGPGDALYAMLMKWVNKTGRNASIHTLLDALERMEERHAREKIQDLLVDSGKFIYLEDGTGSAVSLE

[2] = biological target: T2, human FAPα (Fibroblast activation protein alpha), cell surface expressed (human, UniProt Q12884 1-760); assay: flow cytometry, Expi293F cells expressing human FAPα, n = 3
T2 construct: Endogenous on human lung fibroblasts and CAFs
T2 sequence: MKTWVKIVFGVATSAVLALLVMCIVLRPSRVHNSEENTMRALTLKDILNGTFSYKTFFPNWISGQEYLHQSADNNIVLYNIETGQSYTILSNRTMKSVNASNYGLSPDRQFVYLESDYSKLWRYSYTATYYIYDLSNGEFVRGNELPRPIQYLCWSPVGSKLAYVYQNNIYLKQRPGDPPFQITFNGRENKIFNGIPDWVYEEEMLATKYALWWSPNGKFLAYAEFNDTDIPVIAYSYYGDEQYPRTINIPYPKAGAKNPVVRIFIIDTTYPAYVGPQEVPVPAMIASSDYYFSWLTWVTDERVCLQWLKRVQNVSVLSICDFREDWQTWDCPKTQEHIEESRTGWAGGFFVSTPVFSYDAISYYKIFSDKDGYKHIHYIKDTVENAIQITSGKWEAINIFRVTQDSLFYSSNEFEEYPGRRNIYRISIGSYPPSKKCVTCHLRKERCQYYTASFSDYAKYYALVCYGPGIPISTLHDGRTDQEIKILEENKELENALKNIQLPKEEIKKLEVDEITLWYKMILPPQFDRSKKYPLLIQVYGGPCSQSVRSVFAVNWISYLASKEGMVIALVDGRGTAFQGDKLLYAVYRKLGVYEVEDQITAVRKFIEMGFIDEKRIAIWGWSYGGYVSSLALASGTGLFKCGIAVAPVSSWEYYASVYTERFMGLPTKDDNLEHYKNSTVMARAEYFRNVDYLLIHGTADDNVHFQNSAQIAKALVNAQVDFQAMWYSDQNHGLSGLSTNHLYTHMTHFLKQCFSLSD
Method: (§1) Binding of BisG1-FAPα-FERL/DR4-FERR, BisG1-FAPα-FEAL/b12-FEAR and IgG1-FAPα-FERL to FAPα of species commonly used for nonclinical toxicology studies was assessed by flow cytometry using Expi293F cells transiently expressing FAPα from different animal species. IgG1-b12 was included as negative control.
(§2) Expi293F cells expressing recombinant FAPα from various species (human, cynomolgus monkey, dog, pig, rat or mouse) were seeded (20,000 cells/well) in 96-Well round bottom plates (Greiner Bio-one, Cat #650101). Antibody dilutions were prepared using FACS buffer, consisting of PBS (Capricorn Scientific, Cat #PBS-10XA, diluted to 1×PBS in distilled water)+1% BSA (Roche, Cat #10735086001)+0.02% Sodium Azide (Bio-World, Cat #41920044-3). Plates were centrifuged, supernatant was removed, and cells were resuspended in 100 μL of antibody dilutions (concentration range 30-0.00017 μg/mL with three-fold serial dilutions using FACS buffer) of BisG1-FAPα-FERL/DR4-FERR, BisG1-FAPα-FEAL/b12-FEAR, IgG1-FAPα-FERL and IgG1-b12 and incubated for 30 min at 4° C. […] After 30 min incubation at 4° C., cells were washed with FACS buffer and resuspended in FACS buffer supplemented with TO-PRO-3 Iodide viability marker (Invitrogen, Cat #T3605, diluted 1:4,000). Antibody binding to viable cells (gMFI of PE on TO-PRO-3 negative cells) was analyzed by flow cytometry on a FACS Celesta and FACS_Diva software (first two experiments) or iQue® 3 and FlowJo software (last experiment). gMFI was determined and visualized using GraphPad Prism. Binding curves were analyzed using nonlinear regression analysis. The concentration (pg/mL) at which 50% of the maximal effect was observed (EC₅₀) was derived from the fitted curves.

[3] = biological target: T3, cynomolgus monkey FAPα on Expi293F cells (cynomolgus monkey (Macaca fascicularis), UniProt Q12884 1-760 (human entry)); assay: flow cytometry, Expi293F cells expressing cynomolgus monkey FAPα, n = 3
T3 sequence: T2 sequence with S29P, V261F, E417D
Method: as §1, §2

[4] = biological target: T2, human FAPα (Fibroblast activation …); assay: flow cytometry, Expi293F cells expressing human FAPα, n = 2
Method: as §1, §2

| Binder | EC50 [1] [µg/mL] | EC50 [2] [µg/mL] | EC50 [3] [µg/mL] | EC50 [4] [µg/mL] |
| --- | --- | --- | --- | --- |
| B1 | 0.68 |  |  |  |
| B2 |  | 0.61 | 0.35 | 0.16 |
| B3 |  | 0.32 | 0.16 | 0.12 |
| B4 | 1.35 |  |  |  |

Reference: patent US20250002610A1 (Genmab, published 2025)
